In patent US20210106703A1, “RADIOIMMUNOCONJUGATES IN COMBINATION WITH OTHER DRUGS AS TREATMENT AGAINST NHL” (Nordic Nanovector ASA, priority 2017, published 2021) one finds Immunoreactivity data, which are given here for 1 molecule.

In this assay the test system is Ramos cells. Description: Immunoreactive fraction, one point modified Lindmo method. The format is binding, human. The note with it: 75 million Ramos cells/ml. How it is done: The immunoreactivity of the radioimmunoconjugates was measured using Ramos cells and a one point modified Lindmo method. The cell concentration used was 75 million cells/ml. The immunoreactivity of the conjugates was higher than 70%.
The immunoreactivity of the radioimmunoconjugates was measured using Ramos cells and a one point modified Lindmo method (1, 2). The cell concentration used was 75 million cells/ml. The immunoreactivity of the conjugates was higher than 70%.
The immunoreactivity of the radioimmunoconjugates was measured using Ramos cells and a one point modified Lindmo method. The cell concentration used was 75 million cells/ml. The immunoreactivity of the conjugates was higher than 70%).

B1: Lutetium-177 [^177Lu]-lilotomab satetraxetan (conjugate, chains of the INN, looked up)
VH: EIQLQQSGPELVKPGASVKVSCKASGYSFTDYNMYWVKQSHGKSLEWIGYIDPYNGDTTYNQKFKGKATLTVDKSSSTAFIHLNSLTSEDSAVYYCARSPYGHYAMDYWGQGTSVTVSS
VL: DIVMTQSHKLLSTSVGDRVSITCKASQDVSTAVDWYQQKPGQSPKLLINWASTRHTGVPDRFTGSGSGTDYTLTISSMQAEDLALYYCRQHYSTPFTFGSGTKLEIK
modifications: 177Lu satetraxetan chelator conjugate
Consider B1, for which the Immunoreactivity result was “higher than 70%”.
